# Source: patent US20100197009A1
# Assays:
# [1] = target: biotinylated HLA-A2-AviTag/MelanApeptide/β2 microglobulin complex; assay: flow cytometry of streptavidin M280 beads coated with 0.015 µg of the biotinylated complex, stained with FITC anti-HLA ABC
# [2] = target: biotinylated HLA-A2-AviTag/MelanApeptide/β2 microglobulin complex; assay: flow cytometry of streptavidin M280 beads saturated with the biotinylated complex, stained with anti-HLA-ABC, legend of FIG. 4
# [3] = target: biotinylated HLA-A2-AviTag/MelanApeptide/β2 microglobulin complex; assay: flow cytometry of streptavidin M280 beads coated with the biotinylated complex (saturating, 2 µg), stained with FITC anti-HLA ABC
substance,measurement,setting,value
streptavidin on M280 beads (Dynal) (from UniProt P22629 37-163),MFI,[1],24.5 MFI
same,MFI,[2],305 MFI
same,MFI,[3],300 MFI
